Assay results published in article PMC9482650, “Quantitative fragmentomics allow affinity mapping of interactomes” (Nature Communications, 2022).

B1: MAP2K2, P36507 (peptide)
chain: QPGTPTRTAV
B2: MAS1, P04201 (peptide)
chain: CNTVTVETVV

What was measured:
Experiment in all cases: holdup assay
Parameters in all cases: key: below the threshold = too weak to quantify, mostly under pKd 3.1 to 4
Conditions in all cases: plain residues with an end cap or a label only (N-terminal biotin on a linker: ttds)
APBA1_1, Q02410 = molecular target: T1, APBA1_1, Q02410
T1 sequence (Q02410 651-752, limits assumed, looked up): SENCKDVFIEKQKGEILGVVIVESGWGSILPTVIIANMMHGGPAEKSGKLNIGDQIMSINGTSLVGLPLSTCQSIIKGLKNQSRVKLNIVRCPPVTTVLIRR

ARHGEF11, O15085 = molecular target: T2, ARHGEF11, O15085
T2 sequence (O15085 42-136, limits assumed, looked up): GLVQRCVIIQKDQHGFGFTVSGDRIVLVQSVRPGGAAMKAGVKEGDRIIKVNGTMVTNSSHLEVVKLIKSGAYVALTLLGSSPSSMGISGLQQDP

ARHGEF12, Q9NZN5-2 = molecular target: ARHGEF12, Q9NZN5-2
DLG5_1, Q8TDM6 = molecular target: DLG5_1, Q8TDM6
FRMPD3, Q5JV73 = molecular target: FRMPD3, Q5JV73
GRID2IP_2, A4D2P6 = molecular target: GRID2IP_2, A4D2P6
GRIP1_2, Q9Y3R0 = molecular target: T3, GRIP1_2, Q9Y3R0
T3 sequence (Q9Y3R0 145-248, limits assumed, looked up): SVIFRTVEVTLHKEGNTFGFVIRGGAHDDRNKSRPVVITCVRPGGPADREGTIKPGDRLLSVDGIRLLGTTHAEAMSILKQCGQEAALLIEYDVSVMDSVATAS

HTRA1, Q92743 = molecular target: HTRA1, Q92743
IL16_1, Q14005 = molecular target: IL16_1, Q14005
IL16_3, Q14005 = molecular target: IL16_3, Q14005
Inadl_3, Q8NI35 = molecular target: Inadl_3, Q8NI35
Inadl_5, Q8NI35 = molecular target: Inadl_5, Q8NI35
LNX1_2, Q8TBB1 = molecular target: LNX1_2, Q8TBB1
MAGI2_2, Q86UL8 = molecular target: MAGI2_2, Q86UL8
MAGI3_2, Q5TCQ9 = molecular target: MAGI3_2, Q5TCQ9
MAST1, Q9Y2H9 = molecular target: MAST1, Q9Y2H9
MPP7, Q5T2T1 = molecular target: T4, MPP7, Q5T2T1
T4 sequence (Q5T2T1 134-230, limits assumed, looked up): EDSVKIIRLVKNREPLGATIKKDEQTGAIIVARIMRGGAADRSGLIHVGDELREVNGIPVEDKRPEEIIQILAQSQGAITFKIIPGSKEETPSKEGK

NHERF3_3, Q5T2W1 = molecular target: T5, NHERF3_3, Q5T2W1
T5 sequence (Q5T2W1 238-333, limits assumed, looked up): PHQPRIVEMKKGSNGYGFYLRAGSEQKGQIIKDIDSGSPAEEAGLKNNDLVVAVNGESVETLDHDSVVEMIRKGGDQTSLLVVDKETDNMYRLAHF

PDLIM1, O00151 = molecular target: PDLIM1, O00151
PDZRN3_1, Q9UPQ7 = molecular target: T6, PDZRN3_1, Q9UPQ7
T6 sequence (Q9UPQ7 244-349, limits assumed, looked up): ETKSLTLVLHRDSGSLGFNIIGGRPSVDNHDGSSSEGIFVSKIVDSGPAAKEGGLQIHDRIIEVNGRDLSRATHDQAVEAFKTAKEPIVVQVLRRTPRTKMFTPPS

PTPN3, P26045 = molecular target: PTPN3, P26045
RADIL, Q96JH8 = molecular target: T7, RADIL, Q96JH8
T7 sequence (Q96JH8 971-1071, limits assumed, looked up): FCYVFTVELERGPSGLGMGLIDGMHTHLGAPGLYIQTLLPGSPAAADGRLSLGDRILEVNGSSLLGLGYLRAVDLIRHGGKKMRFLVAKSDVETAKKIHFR

RAPGEF6, Q8TEU7 = molecular target: T8, RAPGEF6, Q8TEU7
T8 sequence (Q8TEU7 525-625, limits assumed, looked up): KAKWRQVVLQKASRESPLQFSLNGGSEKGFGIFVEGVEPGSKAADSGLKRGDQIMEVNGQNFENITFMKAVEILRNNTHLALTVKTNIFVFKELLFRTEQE

RHPN1, Q8TCX5 = molecular target: T9, RHPN1, Q8TCX5
T9 sequence (Q8TCX5 508-602, limits assumed, looked up): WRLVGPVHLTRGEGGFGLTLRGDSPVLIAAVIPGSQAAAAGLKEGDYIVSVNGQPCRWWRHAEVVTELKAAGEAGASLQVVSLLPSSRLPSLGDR

SNTA1, Q13424 = molecular target: T10, SNTA1, Q13424
T10 sequence (Q13424 82-180, limits assumed, looked up): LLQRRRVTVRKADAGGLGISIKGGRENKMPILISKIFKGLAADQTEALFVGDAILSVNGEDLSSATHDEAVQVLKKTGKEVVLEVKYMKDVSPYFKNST

SNTG2, Q9NY99 = molecular target: T11, SNTG2, Q9NY99
T11 sequence (Q9NY99 68-166, limits assumed, looked up): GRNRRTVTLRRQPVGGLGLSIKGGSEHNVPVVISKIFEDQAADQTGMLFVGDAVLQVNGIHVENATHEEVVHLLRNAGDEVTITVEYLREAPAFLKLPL

TJP1_3, Q07157 = molecular target: TJP1_3, Q07157
Chain of TJP1_3, Q07157 (Q07157 416-512): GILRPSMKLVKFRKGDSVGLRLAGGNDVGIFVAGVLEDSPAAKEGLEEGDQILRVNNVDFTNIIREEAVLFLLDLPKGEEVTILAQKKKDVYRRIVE

Chain of HTRA1, Q92743 (Q92743 360-477): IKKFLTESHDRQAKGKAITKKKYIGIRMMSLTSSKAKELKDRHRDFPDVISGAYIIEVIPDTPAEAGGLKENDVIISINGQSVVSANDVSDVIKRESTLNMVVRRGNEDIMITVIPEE
Chain of GRID2IP_2, A4D2P6 (A4D2P6 272-370): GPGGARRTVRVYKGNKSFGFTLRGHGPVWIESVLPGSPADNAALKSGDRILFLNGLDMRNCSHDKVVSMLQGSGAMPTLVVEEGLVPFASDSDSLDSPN
Chain of Inadl_5, Q8NI35 (Q8NI35 673-780): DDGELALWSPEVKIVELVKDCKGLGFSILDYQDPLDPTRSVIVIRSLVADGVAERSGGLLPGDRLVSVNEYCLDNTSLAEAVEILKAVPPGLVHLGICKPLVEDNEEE
Chain of PDLIM1, O00151 (O00151 1-87): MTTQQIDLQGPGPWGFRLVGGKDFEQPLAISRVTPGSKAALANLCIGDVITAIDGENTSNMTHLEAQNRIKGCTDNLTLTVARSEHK
Chain of DLG5_1, Q8TDM6 (Q8TDM6 617-713): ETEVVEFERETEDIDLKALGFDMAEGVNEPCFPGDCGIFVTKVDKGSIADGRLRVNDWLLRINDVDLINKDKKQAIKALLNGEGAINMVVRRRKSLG
Chain of MAGI2_2, Q86UL8 (Q86UL8 410-522): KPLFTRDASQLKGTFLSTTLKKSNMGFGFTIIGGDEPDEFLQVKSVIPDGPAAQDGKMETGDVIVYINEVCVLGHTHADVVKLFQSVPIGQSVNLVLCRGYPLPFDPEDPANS
Chain of FRMPD3, Q5JV73 (Q5JV73 12-100): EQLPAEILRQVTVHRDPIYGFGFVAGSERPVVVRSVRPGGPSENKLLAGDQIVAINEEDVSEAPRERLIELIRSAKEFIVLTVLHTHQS
Chain of ARHGEF12, Q9NZN5-2 (Q9NZN5 other isoform, or with tags, fused parts or gaps): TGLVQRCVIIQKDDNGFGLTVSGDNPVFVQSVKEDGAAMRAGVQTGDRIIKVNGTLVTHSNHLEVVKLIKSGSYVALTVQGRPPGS
Chain of LNX1_2, Q8TBB1 (Q8TBB1 371-470): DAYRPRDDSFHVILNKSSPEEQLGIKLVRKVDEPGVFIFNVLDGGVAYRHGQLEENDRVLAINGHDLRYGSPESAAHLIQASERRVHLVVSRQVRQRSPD
Chain of MAST1, Q9Y2H9 (Q9Y2H9 962-1065): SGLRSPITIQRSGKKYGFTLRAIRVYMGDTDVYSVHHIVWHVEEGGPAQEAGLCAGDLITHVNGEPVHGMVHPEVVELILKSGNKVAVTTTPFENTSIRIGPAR
Chain of IL16_1, Q14005 (Q14005 210-306): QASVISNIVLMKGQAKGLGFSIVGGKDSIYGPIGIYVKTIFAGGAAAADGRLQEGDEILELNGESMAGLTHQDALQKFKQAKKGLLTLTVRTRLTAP
Chain of Inadl_3, Q8NI35 (Q8NI35 359-469): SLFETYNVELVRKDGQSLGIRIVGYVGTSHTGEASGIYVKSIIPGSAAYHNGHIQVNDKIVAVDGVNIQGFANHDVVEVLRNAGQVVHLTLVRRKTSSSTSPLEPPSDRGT
Chain of MAGI3_2, Q5TCQ9 (Q5TCQ9 398-503): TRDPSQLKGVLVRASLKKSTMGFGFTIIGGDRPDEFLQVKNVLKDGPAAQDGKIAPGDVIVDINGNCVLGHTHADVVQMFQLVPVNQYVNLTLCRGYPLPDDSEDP
Chain of PTPN3, P26045 (P26045 505-587): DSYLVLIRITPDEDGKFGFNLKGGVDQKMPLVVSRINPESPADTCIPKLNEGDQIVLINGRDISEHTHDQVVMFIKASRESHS
Chain of IL16_3, Q14005 (Q14005 1107-1207): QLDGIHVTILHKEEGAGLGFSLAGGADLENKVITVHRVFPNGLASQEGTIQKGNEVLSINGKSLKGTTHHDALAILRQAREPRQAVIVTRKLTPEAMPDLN

Row | Binder | pKd (APBA1_1, Q02410) | pKd (ARHGEF11, O15085) | pKd (ARHGEF12, Q9NZN5-2) | pKd (DLG5_1, Q8TDM6) | pKd (FRMPD3, Q5JV73) | pKd (GRID2IP_2, A4D2P6) | pKd (GRIP1_2, Q9Y3R0) | pKd (HTRA1, Q92743) | pKd (IL16_1, Q14005) | pKd (IL16_3, Q14005) | pKd (Inadl_3, Q8NI35) | pKd (Inadl_5, Q8NI35) | pKd (LNX1_2, Q8TBB1) | pKd (MAGI2_2, Q86UL8) | pKd (MAGI3_2, Q5TCQ9) | pKd (MAST1, Q9Y2H9) | pKd (MPP7, Q5T2T1) | pKd (NHERF3_3, Q5T2W1) | pKd (PDLIM1, O00151) | pKd (PDZRN3_1, Q9UPQ7) | also measured
1 | B1 | below the threshold | below the threshold | 3.66 | below the threshold | below the threshold | 4.27 | below the threshold | below the threshold | below the threshold | below the threshold | below the threshold | below the threshold | 3.61 | 3.64 | 3.84 | below the threshold | below the threshold | below the threshold | 3.47 | below the threshold | pKd (PTPN3, P26045): below the threshold; pKd (RADIL, Q96JH8): 3.54; pKd (RAPGEF6, Q8TEU7): 3.67; pKd (RHPN1, Q8TCX5): below the threshold; pKd (SNTA1, Q13424): below the threshold; pKd (SNTG2, Q9NY99): below the threshold; pKd (TJP1_3, Q07157): below the threshold
2 | B2 | below the threshold | below the threshold | below the threshold | below the threshold | below the threshold | below the threshold | 3.61 | 3.61 | below the threshold | below the threshold | 3.75 | below the threshold | below the threshold | below the threshold | 3.78 | 3.58 | below the threshold | 3.54 | below the threshold | below the threshold | pKd (PTPN3, P26045): 3.8; pKd (RADIL, Q96JH8): 3.63; pKd (RAPGEF6, Q8TEU7): below the threshold; pKd (RHPN1, Q8TCX5): 4.09; pKd (SNTA1, Q13424): 4.34; pKd (SNTG2, Q9NY99): 3.93; pKd (TJP1_3, Q07157): below the threshold
